Data from US20220153832A1 (PIONYR IMMUNOTHERAPEUTICS, published 2022).
One block for each binder: values may come before it.

Experiments:
[1] = target: T1, N-terminally polyhistidine tagged human MARCO ECD (147-520), recombinant (human, UniProt Q9UEW3 147-520); experiment: ELISA on recombinant human MARCO, 10 mM EDTA
T1 construct: also called PI-RG-3000; recombinant human MARCO; not shown: N-terminal polyhistidine tag
T1 sequence: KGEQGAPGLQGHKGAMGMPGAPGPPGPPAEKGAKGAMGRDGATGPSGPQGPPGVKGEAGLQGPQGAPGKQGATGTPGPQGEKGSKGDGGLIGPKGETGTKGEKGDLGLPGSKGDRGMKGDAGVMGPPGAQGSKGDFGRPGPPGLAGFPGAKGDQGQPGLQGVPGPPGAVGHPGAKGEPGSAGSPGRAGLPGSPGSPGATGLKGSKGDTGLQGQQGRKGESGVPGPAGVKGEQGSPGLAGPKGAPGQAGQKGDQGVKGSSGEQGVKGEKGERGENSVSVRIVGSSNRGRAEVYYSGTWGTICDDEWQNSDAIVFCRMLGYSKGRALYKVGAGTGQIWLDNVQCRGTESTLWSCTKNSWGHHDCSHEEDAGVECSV
Method: (§1) After the plates were incubated at room temperature for 1 hour or 4° C. overnight, the plates were wash 3 times with ELISA wash buffer (PBS/0.05% TWEEN-20), then hybridoma supernatant (1:5 dilution) or purified antibody (1 ug) was diluted in DPBS/Ca2+/2% FBS, DPBS without Ca2+/2 mM EDTA/2% FBS, DPBS without Ca2+/10 mM EDTA/2% FBS, and DPBS without Ca2+/50 mM EDTA/2% FBS. Plates again were incubated at room temperature for 1 hour.

[2] = target: T1, N-terminally polyhistidine tagged human …; experiment: SPR, multi cycle kinetics, huMARCO antigen
Method in brief: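 Binding kinetics and affinity of antibodies for the N-terminally His-tagged human MARCO extracellular domain (147-520) were determined by surface plasmon resonance with multi-cycle kinetics on a Biacore T200. The antibodies were captured on a CM4 chip carrying amine-coupled anti-mouse Fc mAb (4500 RU target), and the runs were done at 25° C in 10 mM HEPES pH 7.4, 150 mM NaCl, 3 mM EDTA, 0.05% surfactant P20. The analyte was injected at 0.625–10 nM with 90 s association and 600 s dissociation, and the constants were fitted in BIAevaluation 3.1.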

[3] = target: T1, N-terminally polyhistidine tagged human …; experiment: label-free kinetics (ProbeLife Gator), mAb captured, human MARCO
Method: The kinetics assay used either anti-mouse Fc or anti-human Fc probes to capture the anti-MARCO antibodies onto the probe, and then a five-step kinetic protocol was used to measure the affinity of the antibodies to the antigen, including the following steps: baseline, loading, baseline, association, and dissociation. The kinetics buffer (K buffer) provided by ProbeLife was used to establish the baseline for 60 seconds, and then the anti-mFc or anti-hFc probes were loaded with 200 nM of the antibodies for 120s until the capture reached saturation, measurement of the baseline in K buffer was performed for another 60s, followed by the association step using 200 nM antigen (human MARCO, mouse MARCO or cyno MARCO), and the dissociation step performed in K buffer for 5-10 minutes. The assay was done at 37° C. to maximize antibody:antigen dissociation.
Kinetics and epitope binning analysis of the newly generated anti-human MARCO antibodies was performed as described in Example 3.

[4] = target: T1, N-terminally polyhistidine tagged human …; experiment: ELISA on recombinant human MARCO, 2 mM EDTA
Method: as §1

[5] = target: T2, Human Macrophage Receptor with Collagenous Structure (MARCO), full length, on cells (human, UniProt Q9UEW3 1-520); experiment: flow cytometry, cells overexpressing human MARCO
T2 construct: the cell type is named under assay; also called huMARCO; HuMARCO
T2 sequence: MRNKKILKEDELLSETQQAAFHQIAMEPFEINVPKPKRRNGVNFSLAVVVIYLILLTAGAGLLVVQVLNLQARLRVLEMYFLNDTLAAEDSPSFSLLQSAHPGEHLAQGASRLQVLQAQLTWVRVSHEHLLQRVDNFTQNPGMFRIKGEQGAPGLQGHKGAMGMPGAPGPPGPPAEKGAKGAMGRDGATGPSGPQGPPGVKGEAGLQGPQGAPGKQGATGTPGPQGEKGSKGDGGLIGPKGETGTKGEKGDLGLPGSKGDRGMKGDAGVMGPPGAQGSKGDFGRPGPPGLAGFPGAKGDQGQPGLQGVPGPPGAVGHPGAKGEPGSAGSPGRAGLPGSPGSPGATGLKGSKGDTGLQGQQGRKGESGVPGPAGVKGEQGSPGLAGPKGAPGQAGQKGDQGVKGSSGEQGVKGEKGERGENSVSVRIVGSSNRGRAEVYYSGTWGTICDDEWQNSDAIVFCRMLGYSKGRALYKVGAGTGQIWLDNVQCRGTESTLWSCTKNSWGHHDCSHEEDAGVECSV

[6] = target: T3, N-terminal his-tagged mouse MARCO protein, recombinant (mouse, UniProt Q60754 150-518); experiment: Biacore; antigen construct not stated
T3 construct: The entry holds the His tag, the CLD and the SRCR domain; also called mMARCO (RG3016); PI-RG-3016
T3 sequence: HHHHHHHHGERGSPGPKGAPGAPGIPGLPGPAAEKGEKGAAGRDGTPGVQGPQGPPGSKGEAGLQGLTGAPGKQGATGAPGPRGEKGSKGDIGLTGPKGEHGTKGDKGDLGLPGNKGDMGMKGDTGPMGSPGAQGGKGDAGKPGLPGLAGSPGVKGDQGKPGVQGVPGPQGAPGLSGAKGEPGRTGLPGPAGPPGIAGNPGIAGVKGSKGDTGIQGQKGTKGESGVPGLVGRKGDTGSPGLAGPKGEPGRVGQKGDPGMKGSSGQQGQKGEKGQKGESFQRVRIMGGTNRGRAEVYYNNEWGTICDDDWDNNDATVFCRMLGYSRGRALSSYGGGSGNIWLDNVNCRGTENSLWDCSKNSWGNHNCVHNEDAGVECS

- ELISA signal (A450) [1]: 0.0589
- Kd [2]: 0.0913 nM
- koff [3]: 0.000798 s⁻¹
- kon [3]: 443000 M⁻¹ s⁻¹
- ELISA signal (A450) [4]: 0.0678
B1: PI-HX-3031 (antibody)
heavy: QVQLKESGPGLVQPSQTLSLTCTVSGFSLTSYHVSWVRQPPGKGLEWMGAIWTGGSIAYNSLLKSRLSISRDTSKSQVFLKMNSLQTEDTATYYCARDLSDYYSSYTSFDYWGQGVMVTVSTAETTAPSVYPLAPGTALKSNSMVTLGCLVKGYFPEPVTVTWNSGALSSGVHTFPAVLQSGLYTLTSSVTVPSSTWSSQAVTCNVAHPASSTKVDKKIVPRECNPCGCTGSEVSSVFIFPPKTKDVLTITLTPKVTCVVVDISQNDPEVRFSWFIDDVEVHTAQTHAPEKQSNSTLRSVSELPIVHRDWLNGKTFKCKVNSGAFPAPIEKSISKPEGTPRGPQVYTMAPPKEEMTQSQVSITCMVKGFYPPDIYTEWKMNGQPQENYKNTPPTMDTDGSYFLYSKLNVKKETWQQGNTFTCSVLHEGLHNHHTEKSLSHSP
light: DIQMTQSPASLSTSLGETVSIECLASEGISNDLAWYQQKSGKSPQLLIYAASRLQDGVPSRFSGSGSGTRYSLKISGMQPEDEADYFCQQSYKYPLTFGSGTKLEIKRADAAPTVSIFPPSTEQLATGGASVVCLMNNFYPRDISVKWKIDGTERRDGVLDSVTDQDSKDSTYSMSSTLSLTKADYESHNLYTCEVVHKTSSSPVVKSFNRNEC
notes: Parental rat hybridoma, rat IgG2a

- ELISA signal (A450) [1]: 0.06
- koff [3]: 0.000849 s⁻¹
- kon [3]: 233000 M⁻¹ s⁻¹
- ELISA signal (A450) [4]: 0.0595
B2: PI-HX-3043 (antibody, rat IgG2a)
heavy: QVNLLQSRAALVKPGASVKLSCKASGYTFTDYYLHWVKQSHAKSLEWIGYINPNNAYTSYNEKFKSKATLTVDKSTNTAYMELSRLTSADSATYYCARDTTDYYNLHFAYWGQGTLVTVSSAETTAPSVYPLAPGTALKSNSMVTLGCLVKGYFPEPVTVTWNSGALSSGVHTFPAVLQSGLYTLTSSVTVPSSTWSSQAVTCNVAHPASSTKVDKKIVPRECNPCGCTGSEVSSVFIFPPKTKDVLTITLTPKVTCVVVDISQNDPEVRFSWFIDDVEVHTAQTHAPEKQSNSTLRSVSELPIVHRDWLNGKTFKCKVNSGAFPAPIEKSISKPEGTPRGPQVYTMAPPKEEMTQSQVSITCMVKGFYPPDIYTEWKMNGQPQENYKNTPPTMDTDGSYFLYSKLNVKKETWQQGNTFTCSVLHEGLHNHHTEKSLSHSP
light: DIQMTQSPASLSASLGETVSIECLTSEGISNDLAWYQQKSGKSPQLLIYDASRLEDGVPSRFSGSGSGTRYSLKISGMQTEDEADYFCQQSYKYPLTFGSGTKLEIKRADAAPTVSIFPPSTEQLATGGASVVCLMNNFYPRDISVKWKIDGTERRDGVLDSVTDQDSKDSTYSMSSTLSLTKADYESHNLYTCEVVHKTSSSPVVKSFNRNEC
notes: as for B1

- EC50 [5]: 0.68 nM
B3: PI-3010-AB (antibody, human IgG1, kappa)
heavy: not shown
light: DIQMTQSPASLSTSLGETVSIECLASEGISNDLAWYQQKSGKSPQLLIYAASRLQDGVPSRFSGSGSGTRYSLKISGMQPEDEADYFCQQSYKYPLTFGSGTKLEIKRTVAAPSVFIFPPSDEQLKSGTASVVCLLNNFYPREAKVQWKVDNALQSGNSQESVTEQDSKDSTYSLSSTLTLSKADYEKHKVYACEVTHQGLSSPVTKSFNRGEC

- Kd [2]: 0.256 nM
B4: PI-HX-3061 (antibody, rat IgG2a)
heavy: EVQLVESGGGLVQPGSSLKLSCVASKFTFSNYGMNWIRQAPKKGLEWIALIYYNSNNKYYADSVKGRFTISRDNSKNTLYLEMNSLRSEDTAMYYCAKSLTGGSDYFDSWGQGVMVTVSSAETTAPSVYPLAPGTALKSNSMVTLGCLVKGYFPEPVTVTWNSGALSSGVHTFPAVLQSGLYTLTSSVTVPSSTWPSQTVTCNVAHPASSTKVDKKIVPRNCGGDCKPCICTGSEVSSVFIFPPKPKDVLTITLTPKVTCVVVDISQDDPEVHFSWFVDDVEVHTAQTRPPEEQFNSTFRSVSELPILHQDWLNGRTFRCKVTSAAFPSPIEKTISKPEGRTQVPHVYTMSPTKEEMTQNEVSITCMVKGFYPPDIYVEWQMNGQPQENYKNTPPTMDTDGSYFLYSKLNVKKEKWQQGNTFTCSVLHEGLHNHHTEKSLSHSP
light: DVQMTQSPSYLAASPGESVSISCKASKSIGTFLAWYQEKPEKTNKLLIYSGSTLQSGTPSRFSGSGSGTDFTLTIRNLEPEDFAVYYCQQHDEYPFTFGSGTKLEIKRADAAPTVSIFPPSTEQLATGGASVVCLMNNFYPRDISVKWKIDGTERRDGVLDSVTDQDSKDSTYSMSSTLSLTKADYESHNLYTCEVVHKTSSSPVVKSFNRNEC
notes: Parental rat hybridoma, rat IgG2a; cross reactive with human and mouse MARCO

- koff [6]: 2.11e-05 s⁻¹
- kon [6]: 191000 M⁻¹ s⁻¹
B5: PI-HX-3021 (antibody, V domains shown)
VH: QVRLVQSGTALVRPGASVRMSCTASGYSFTDYWVSWVKQSHGQSLEWIGEIYPNSGTTNFNEKFEGKATLTVDKSTSTAYMELSRLTSEDSAIYYCTGEGTFDYWGQGVMVTVSS
VL: EIVLTQSPTTMAASPGEKVTITCRPSSSLSNMHWFQQKSGTSPKPWIYDTSKLASGVPDRFSGSGSGTSYSLTISSMEAEDAATYYCLQRSSYPPTFGAGTKLELK
notes: Rat IgG2a hybridoma antibody; Not the effector dead PI-3021; also called PI-3007 (name of the recombinant form)

- koff [6]: 1.27e-06 s⁻¹
- kon [6]: 184000 M⁻¹ s⁻¹
B6: PI-HX-3016 (antibody, rat IgG1, V domains shown)
VH: EVQLVESGGGLVKPGASLKLSCVASGFTFSDDWMNWVRQTPGKAMEWIGDIKYDGSYTNYVPSLKNRLTISRDNAKNTLYLQMTNVRSEDTATYYCTSGGVFDYWGQGVMVTVSS
VL: EIVLSQSPTTMAASPGEKVTITCRASSSVSYMHWFQQKSGTSPKPWIYDTSKLASGVPDRFSGSGSGTSYSLTISSMEAEDAATYYCLQRSGYPPTFGAGTKLEVK
notes: Rat IgG1 hybridoma antibody

- EC50 [5]: 0.86 nM
B7: PI-3015-AB (antibody, human IgG1, kappa)
heavy: not shown
light: DIQMTQSPSSLSASVGDRVTITCRASEGISNDLAWYQQKPGKAPKLLIYAASRLQSGVPSRFSGSGSGTDYTLTISSMQPEDFATYYCQQSYKYPLTFGQGTKLEIKRTVAAPSVFIFPPSDEQLKSGTASVVCLLNNFYPREAKVQWKVDNALQSGNSQESVTEQDSKDSTYSLSSTLTLSKADYEKHKVYACEVTHQGLSSPVTKSFNRGEC
